From US20260028398A1 (SUZHOU DIMA BIOTECHNOLOGY, published 2026)

Tests used:
[1] = molecular target: T1, human GPRC5D (human, UniProt Q9NZD1 1-345); assay: flow cytometry, IgG1 antibody titrated on K562-GPRC5D cells
T1 construct: whole, on cells; Target always presented on cells (K562-GPRC5D, RPMI 8226, MM.1S, NCI-H929); also called GPRC5D protein

[2] = molecular target: T1, human GPRC5D; assay: flow cytometry, scFv-hFc at 20 ug/ml on MM.1S and NCI-H929 cells
[3] = molecular target: T1, human GPRC5D; assay: flow cytometry, scFv-hFc titrated on K562-GPRC5D and RPMI 8226 cells; G00 told only as the weaker comparator
[4] = molecular target: T1, human GPRC5D; assay: flow cytometry, bispecific antibody titrated on NCI-H929 cells, APC anti-human IgG
Procedure: NCI-H929 and Jurkat cells were cultured for 48 hours, counted, and plated at a density of 2×10⁵ cells in 96-well V-bottom plates. The bispecific antibodies were serially diluted in PBS, with Talquetamab used as a positive control. The starting concentration was 100 μg/ml, followed by 1:5, 1:2, 1:2, 1:2, 1:2, 1:2, 1:2, 1:2 serial dilutions, resulting in […] for testing. 100 μl of proteins was added to each well with 200,000 cells. The BsAb was incubated with cells at 4° C. for 1 hour, washed three times with PBS and 0.2% FBS, and then APC-conjugated anti-human IgG mAb was added to each well. The cells were incubated with the secondary antibody for 1 hour at 4° C., washed three times again with PBS and 0.2% FBS, and then analyzed using flow cytometry.

T1 sequence (Q9NZD1 whole entry): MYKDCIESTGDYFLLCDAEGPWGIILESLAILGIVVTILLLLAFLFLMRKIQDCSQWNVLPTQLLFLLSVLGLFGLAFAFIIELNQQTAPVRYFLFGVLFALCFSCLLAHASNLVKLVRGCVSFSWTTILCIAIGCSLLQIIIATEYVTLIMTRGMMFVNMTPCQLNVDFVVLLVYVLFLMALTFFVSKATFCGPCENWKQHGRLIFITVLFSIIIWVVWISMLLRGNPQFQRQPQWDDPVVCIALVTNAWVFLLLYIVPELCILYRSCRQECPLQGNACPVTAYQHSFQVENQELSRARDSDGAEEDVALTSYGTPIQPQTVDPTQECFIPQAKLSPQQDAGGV

B1: G05 humanized IgG1-type antibody (native structure) (antibody, V domains shown)
VH: EVQLVESGGGLVQPGGSLRLSCAASGFSLTDNGITWVRQAPGKGLEWIGIMTTGGSTYYAGWAKGRFTISRDNSKNTLYLQMNSLRAEDTATYFCTRGYGIHGLWGPGTLVTVSS
VL: DIQMTQSPSSLSASVGDRVTITCQASESISKFLSWYQQKPGKVPKLLIYRASTLASGVPSRFSGSGSGTDFTLTISSLQPEDVATYYCQGYDGSSTTTNYESAFGQGTKLTVL
notes: also called G05-mAb
binding result [1]: binds

B2: G09 humanized IgG1-type antibody (native structure) (antibody, V domains shown)
VH: EVQLVESGGGLVQPGGSLRLSCAASGFSLSNNGITWVRQAPGKGLEWIGIITTTGSAYYAGWAKGRFTISRDNSKNTLYLQMNSLRAEDTAVYYCARGYGIHGLWGPGTLVTVSS
VL: DIQMTQSPSSLSASVGDRVTITCQASESISNYLSWYQQKPGKVPKLLIYRASTLASGVPSRFSGSGSGTDFTLTISSLQPEDVATYYCQGYDGSASSSNYESAFGQGTKLTVL
notes: also called G09-mAb
binding result [1]: binds

B3: G07 humanized IgG1-type antibody (native structure) (antibody, V domains shown)
VH: EVQLVESGGGLVQPGGSLRLSCAASGFSLTDNGITWVRQAPGKGLEWIGIMTTGGTTYYAGWAKGRFTISRDNSKNTLYLQMNSLRAEDTAVYYCARGYGIHGLWGPGTLVTVSS
VL: DIQMTQSPSSLSASVGDRVTITCQASESVSKFLSWYQQKPGKVPKLLIYRASTLASGVPSRFSGSGSGTDFTLTISSLQPEDVATYYCQGYDGSSTTTNYESAFGQGTKLTVL
notes: also called G07-mAb
binding result [1]: binds

B4: G05 scFv-hFc humanized IgG1 format antibody (Fc fusion)
chain: DIQMTQSPSSLSASVGDRVTITCQASESISKFLSWYQQKPGKVPKLLIYRASTLASGVPSRFSGSGSGTDFTLTISSLQPEDVATYYCQGYDGSSTTTNYESAFGQGTKLTVLGGGGSGGGGSGGGGSEVQLVESGGGLVQPGGSLRLSCAASGFSLTDNGITWVRQAPGKGLEWIGIMTTGGSTYYAGWAKGRFTISRDNSKNTLYLQMNSLRAEDTATYFCTRGYGIHGLWGPGTLVTVSS
notes: not shown: human IgG1 Fc (hFc) of the scFv-hFc vector
binding result [2]: binds

B5: G07 scFv-hFc humanized IgG1 format antibody (Fc fusion)
chain: DIQMTQSPSSLSASVGDRVTITCQASESVSKFLSWYQQKPGKVPKLLIYRASTLASGVPSRFSGSGSGTDFTLTISSLQPEDVATYYCQGYDGSSTTTNYESAFGQGTKLTVLGGGGSGGGGSGGGGSEVQLVESGGGLVQPGGSLRLSCAASGFSLTDNGITWVRQAPGKGLEWIGIMTTGGTTYYAGWAKGRFTISRDNSKNTLYLQMNSLRAEDTAVYYCARGYGIHGLWGPGTLVTVSS
notes: as for B4
binding result [2]: binds

B6: G02 humanized IgG1-type antibody (native structure) (antibody, V domains shown)
VH: EVQLVESGGGLVQPGGSLRLSCTASGFSLSSNAMSWVRQAPGKGLEWIGSIGRSGSTYNANWAKGRFTISRDNSKNTVYLQMNSLRAEDTAVYFCAKFTGGVSGGYFSVWGPGTLVTVSS
VL: DIQMTQSPSTLSASVGDRVIINCQASQSVYNNNLLSWYQQKPGKAPKLLIYAASNLASGVPSRFSGSGSGAEFTLTISSLQPDDFATYYCQGYYGGAICAFGQGTKLTVL
binding result [1]: binds

B7: G02 scFv-hFc humanized IgG1 format antibody (Fc fusion)
chain: DIQMTQSPSTLSASVGDRVIINCQASQSVYNNNLLSWYQQKPGKAPKLLIYAASNLASGVPSRFSGSGSGAEFTLTISSLQPDDFATYYCQGYYGGAICAFGQGTKLTVLGGGGSGGGGSGGGGSEVQLVESGGGLVQPGGSLRLSCTASGFSLSSNAMSWVRQAPGKGLEWIGSIGRSGSTYNANWAKGRFTISRDNSKNTVYLQMNSLRAEDTAVYFCAKFTGGVSGGYFSVWGPGTLVTVSS
notes: as for B4
binding result [2]: binds

B8: control antibody G00 (MCARH109) as scFv-hFc IgG1 format antibody (Fc fusion)
chain: QSALTQPASVSGSPGQSITISCTGTSSDVGGYNYVSWYQQHPGKAPKLMIYDVSKRPSGVSNRFSGSKSGNTASLTISGLQAEDEADYYCSSYTRSSTEVFGGGTKLTVLGSRGGGGSGGGGSGGGGSLEMAEVQLVQSGAEVKKPGASVKVSCKASGYTFTSYYMHWVRQAPGQGLEWMGIINPSGGSTSYAQKFQGRVTMTRDTSTSTVYMELSSLRSEDTAVYYCARGGSKKWSGEKWRRENFDYWGQGTLVTVSS
notes: also called GOO; G00 scFv-hFc; not shown: human IgG1 Fc (hFc) of the scFv-hFc vector
binding result [3]: binds

B9: G09 scFv-hFc humanized IgG1 format antibody (Fc fusion)
chain: DIQMTQSPSSLSASVGDRVTITCQASESISNYLSWYQQKPGKVPKLLIYRASTLASGVPSRFSGSGSGTDFTLTISSLQPEDVATYYCQGYDGSASSSNYESAFGQGTKLTVLGGGGSGGGGSGGGGSEVQLVESGGGLVQPGGSLRLSCAASGFSLSNNGITWVRQAPGKGLEWIGIITTTGSAYYAGWAKGRFTISRDNSKNTLYLQMNSLRAEDTAVYYCARGYGIHGLWGPGTLVTVSS
notes: as for B4
binding result [2]: binds

B10: G05 BsAb (GPRC5D&CD3 bispecific antibody) (bispecific antibody)
chain: DIQMTQSPSSLSASVGDRVTITCQASESISKFLSWYQQKPGKVPKLLIYRASTLASGVPSRFSGSGSGTDFTLTISSLQPEDVATYYCQGYDGSSTTTNYESAFGQGTKLTVLGGGGSGGGGSGGGGSEVQLVESGGGLVQPGGSLRLSCAASGFSLTDNGITWVRQAPGKGLEWIGIMTTGGSTYYAGWAKGRFTISRDNSKNTLYLQMNSLRAEDTATYFCTRGYGIHGLWGPGTLVTVSSDKTHTCPPCPAPELLGGPSVFLFPPKPKDTLMISRTPEVTCVVVDVSHEDPEVKFNWYVDGVEVHNAKTKPREEQYNSTYRVVSVLTVLHQDWLNGKEYKCKVSNKALPAPIEKTISKAKGQPREPQVCTLPPSREEMTKNQVSLSCAVKGFYPSDIAVEWESNGQPENNYKTTPPVLDSDGSFFLVSKLTVDKSRWQQGNVFSCSVMHEALHNHYTQKSLSLSPGK
heavy: not shown
light: QAVVTQEPSLTVSPGGTVTLTCGSSTGAVTTSNYANWVQEKPGQAFRGLIGGTNKRAPGTPARFSGSLLGGKAALTLSGAQPEDEAEYYCALWYSNLWVFGGGTKLTVL
notes: not shown: human kappa constant region of vector pTT5-hKappa
binding result [4]: binds

B11: G00 BsAb (GPRC5D&CD3 bispecific antibody with the control scFv G00) (bispecific antibody)
chain: QSALTQPASVSGSPGQSITISCTGTSSDVGGYNYVSWYQQHPGKAPKLMIYDVSKRPSGVSNRFSGSKSGNTASLTISGLQAEDEADYYCSSYTRSSTEVFGGGTKLTVLGSRGGGGSGGGGSGGGGSLEMAEVQLVQSGAEVKKPGASVKVSCKASGYTFTSYYMHWVRQAPGQGLEWMGIINPSGGSTSYAQKFQGRVTMTRDTSTSTVYMELSSLRSEDTAVYYCARGGSKKWSGEKWRRENFDYWGQGTLVTVSSDKTHTCPPCPAPELLGGPSVFLFPPKPKDTLMISRTPEVTCVVVDVSHEDPEVKFNWYVDGVEVHNAKTKPREEQYNSTYRVVSVLTVLHQDWLNGKEYKCKVSNKALPAPIEKTISKAKGQPREPQVCTLPPSREEMTKNQVSLSCAVKGFYPSDIAVEWESNGQPENNYKTTPPVLDSDGSFFLVSKLTVDKSRWQQGNVFSCSVMHEALHNHYTQKSLSLSPGK
heavy: not shown
light: QAVVTQEPSLTVSPGGTVTLTCGSSTGAVTTSNYANWVQEKPGQAFRGLIGGTNKRAPGTPARFSGSLLGGKAALTLSGAQPEDEAEYYCALWYSNLWVFGGGTKLTVL
notes: also called GOO; not shown: human kappa constant region of vector pTT5-hKappa
binding result [4]: binds

B12: G09 BsAb (GPRC5D&CD3 bispecific antibody) (bispecific antibody)
chain: DIQMTQSPSSLSASVGDRVTITCQASESISNYLSWYQQKPGKVPKLLIYRASTLASGVPSRFSGSGSGTDFTLTISSLQPEDVATYYCQGYDGSASSSNYESAFGQGTKLTVLGGGGSGGGGSGGGGSEVQLVESGGGLVQPGGSLRLSCAASGFSLSNNGITWVRQAPGKGLEWIGIITTTGSAYYAGWAKGRFTISRDNSKNTLYLQMNSLRAEDTAVYYCARGYGIHGLWGPGTLVTVSSDKTHTCPPCPAPELLGGPSVFLFPPKPKDTLMISRTPEVTCVVVDVSHEDPEVKFNWYVDGVEVHNAKTKPREEQYNSTYRVVSVLTVLHQDWLNGKEYKCKVSNKALPAPIEKTISKAKGQPREPQVCTLPPSREEMTKNQVSLSCAVKGFYPSDIAVEWESNGQPENNYKTTPPVLDSDGSFFLVSKLTVDKSRWQQGNVFSCSVMHEALHNHYTQKSLSLSPGK
heavy: not shown
light: QAVVTQEPSLTVSPGGTVTLTCGSSTGAVTTSNYANWVQEKPGQAFRGLIGGTNKRAPGTPARFSGSLLGGKAALTLSGAQPEDEAEYYCALWYSNLWVFGGGTKLTVL
notes: as for B10
binding result [4]: binds

B13: G07 BsAb (GPRC5D&CD3 bispecific antibody) (bispecific antibody)
chain: DIQMTQSPSSLSASVGDRVTITCQASESVSKFLSWYQQKPGKVPKLLIYRASTLASGVPSRFSGSGSGTDFTLTISSLQPEDVATYYCQGYDGSSTTTNYESAFGQGTKLTVLGGGGSGGGGSGGGGSEVQLVESGGGLVQPGGSLRLSCAASGFSLTDNGITWVRQAPGKGLEWIGIMTTGGTTYYAGWAKGRFTISRDNSKNTLYLQMNSLRAEDTAVYYCARGYGIHGLWGPGTLVTVSSDKTHTCPPCPAPELLGGPSVFLFPPKPKDTLMISRTPEVTCVVVDVSHEDPEVKFNWYVDGVEVHNAKTKPREEQYNSTYRVVSVLTVLHQDWLNGKEYKCKVSNKALPAPIEKTISKAKGQPREPQVCTLPPSREEMTKNQVSLSCAVKGFYPSDIAVEWESNGQPENNYKTTPPVLDSDGSFFLVSKLTVDKSRWQQGNVFSCSVMHEALHNHYTQKSLSLSPGK
heavy: not shown
light: QAVVTQEPSLTVSPGGTVTLTCGSSTGAVTTSNYANWVQEKPGQAFRGLIGGTNKRAPGTPARFSGSLLGGKAALTLSGAQPEDEAEYYCALWYSNLWVFGGGTKLTVL
notes: as for B10
binding result [4]: binds
